Where “and” joins values, the source holds several entries; their conditions need not be identical. Equal entries are not always repeated. Where two headings read alike, the source gives them in different places.
Legend:
[1] = molecular target: Thermothelomyces thermophilus SAM complex (10xHis-TEV-Sam50, Sam35 (no tag), TwinStrep-TEV-GG-Sam37) (Thermothelomyces thermophilus); test: MST; SAM complex labelled with Monolith RED-tris-NTA 2nd Generation, constant at 25 nM; serial dilution of peptide; size-exclusion buffer (20 mM HEPES pH 8.0, 150 mM NaCl, 0.02% GDN); Monolith NT.115, premium capillaries; MO.Affinity Analysis; one Kd for each biological replicate from 2-3 technical replicates
[2] = molecular target: Thermothelomyces thermophilus SAM complex (sorting and assembly machinery complex; Sam50:Sam35:Sam37, monomer) (Thermothelomyces thermophilus); test: MST; SAM complex labelled with Monolith RED-tris-NTA 2nd Generation, constant at 25 nM; serial dilution of peptide; size exclusion buffer (20 mM HEPES pH 8.0, 150 mM NaCl, 0.02% GDN); Monolith NT.115, premium capillaries

Row | Kd ([1]; mean of biological replicates) | Kd [2] | Kd [1] | Substance
1 | 0.228 µM | 0.296 µM and 0.0956 to 0.377 µM | – | darobactin A (peptide)
2 | – | 490 to 1200 µM | > 1170 µM | linear darobactin (peptide)

Reference: PMC12728192, “The dynamic lateral gate of the mitochondrial β-barrel biogenesis machinery is blocked by darobactin A” (Nature Communications, 2025)
